B1: EHEE_rd2_0601 (parent)
chain: TYTYKLTDEEASRRAEDEWRNRGYDVRVRNNNGTWEVEVR

Variants of: B1
Experiment: folding stability dG (cDNA display proteolysis); higher = more stable
Details: PBS, room temperature

Going from TYTYKLTDEEASRRAEDEWRNRGYDVRVRNRNGTWEVEVR to TYTYKLTDEEASRRAEDEWRNRGYDVRVRNFNGTWEVEVR, the “folding stability dG” value rises from 1.34 kcal/mol to 1.42 kcal/mol.

Compared with TYTYKLTDEEASRRAEDEWRNRGYDVRVRNKNGTWEVEVR, TYTYKLTDEEASRRAEDEWRNRGYDVRVRNDNGTWEVEVR is lower in “folding stability dG” value: 1.16 kcal/mol for the first, 1.06 kcal/mol for the second.

First: TYTYKLTDEEASRRAEDEWRNRGYDVRVRNENGTWEVEVR
Second: TYTYKLTDEEASRRAEDEWRNRGYDVRVRNVNGTWEVEVR
The “folding stability dG” value of the first is lower: 1.12 kcal/mol for the first, 1.83 kcal/mol for the second.

Going from TYTYKLTDEEASRRAEDEWRNRGYDVRVRNGNGTWEVEVR to TYTYKLTDEEASRRAEDEWRNRGYDVRVRNTNGTWEVEVR, the “folding stability dG” value rises from 0.546 kcal/mol to 1.21 kcal/mol.

Going from TYTYKLTDEEASRRAEDEWRNRGYDVRVRNMNGTWEVEVR to TYTYKLTDEEASRRAEDEWRNRGYDVRVRNWNGTWEVEVR, the “folding stability dG” value falls from 1.31 kcal/mol to 1.02 kcal/mol.

Compared with TYTYKLTDEEASRRAEDEWRNRGYDVRVRNHNGTWEVEVR, TYTYKLTDEEASRRAEDEWRNRGYDVRVRNINGTWEVEVR is higher in “folding stability dG” value: 1.32 kcal/mol for the first, 1.76 kcal/mol for the second.

First: TYTYKLTDEEASRRAEDEWRNRGYDVRVRNANGTWEVEVR
Second: TYTYKLTDEEASRRAEDEWRNRGYDVRVRNLNGTWEVEVR
The “folding stability dG” value of the first is lower: 0.996 kcal/mol for the first, 1.51 kcal/mol for the second.

Going from TYTYKLTDEEASRRAEDEWRNRGYDVRVRNSNGTWEVEVR to TYTYKLTDEEASRRAEDEWRNRGYDVRVRNQNGTWEVEVR, the “folding stability dG” value falls from 1.1 kcal/mol to 1.08 kcal/mol.

First: TYTYKLTDEEASRRAEDEWRNRGYDVRVRNYNGTWEVEVR
Second: TYTYKLTDEEASRRAEDEWRNRGYDVRVRNPNGTWEVEVR
The “folding stability dG” value of the first is higher: 1.4 kcal/mol for the first, -0.345 kcal/mol for the second.

Compared with TYTYKLTDEEASRRAEDEWRNRGYDVRVQNNNGTWEVEVR, TYTYKLTDEEASRRAEDEWRNRGYDVRVVNNNGTWEVEVR is higher in “folding stability dG” value: 1.18 kcal/mol for the first, 1.67 kcal/mol for the second.

Compared with TYTYKLTDEEASRRAEDEWRNRGYDVRVSNNNGTWEVEVR, TYTYKLTDEEASRRAEDEWRNRGYDVRVLNNNGTWEVEVR is lower in “folding stability dG” value: 1.55 kcal/mol for the first, 1.4 kcal/mol for the second.

First: TYTYKLTDEEASRRAEDEWRNRGYDVRVPNNNGTWEVEVR
Second: TYTYKLTDEEASRRAEDEWRNRGYDVRVKNNNGTWEVEVR
The “folding stability dG” value of the first is lower: -0.71 kcal/mol for the first, 1.35 kcal/mol for the second.

First: TYTYKLTDEEASRRAEDEWRNRGYDVRVGNNNGTWEVEVR
Second: TYTYKLTDEEASRRAEDEWRNRGYDVRVMNNNGTWEVEVR
The “folding stability dG” value of the first is lower: 0.418 kcal/mol for the first, 1.26 kcal/mol for the second.

First: TYTYKLTDEEASRRAEDEWRNRGYDVRVHNNNGTWEVEVR
Second: TYTYKLTDEEASRRAEDEWRNRGYDVRVNNNNGTWEVEVR
The “folding stability dG” value of the first is higher: 1.49 kcal/mol for the first, 1.17 kcal/mol for the second.

First: TYTYKLTDEEASRRAEDEWRNRGYDVRVTNNNGTWEVEVR
Second: TYTYKLTDEEASRRAEDEWRNRGYDVRVINNNGTWEVEVR
The “folding stability dG” value of the first is higher: 1.86 kcal/mol for the first, 1.78 kcal/mol for the second.

Compared with TYTYKLTDEEASRRAEDEWRNRGYDVRVWNNNGTWEVEVR, TYTYKLTDEEASRRAEDEWRNRGYDVRVYNNNGTWEVEVR is higher in “folding stability dG” value: 1.56 kcal/mol for the first, 1.74 kcal/mol for the second.

Going from TYTYKLTDEEASRRAEDEWRNRGYDVRVRSNNGTWEVEVR to TYTYKLTDEEASRRAEDEWRNRGYDVRVRVNNGTWEVEVR, the “folding stability dG” value rises from 1.1 kcal/mol to 1.43 kcal/mol.

Compared with TYTYKLTDEEASRRAEDEWRNRGYDVRVRRNNGTWEVEVR, TYTYKLTDEEASRRAEDEWRNRGYDVRVRENNGTWEVEVR is higher in “folding stability dG” value: 1.23 kcal/mol for the first, 1.7 kcal/mol for the second.

First: TYTYKLTDEEASRRAEDEWRNRGYDVRVRFNNGTWEVEVR
Second: TYTYKLTDEEASRRAEDEWRNRGYDVRVRDNNGTWEVEVR
The “folding stability dG” value of the first is higher: 2.29 kcal/mol for the first, 1 kcal/mol for the second.

Compared with TYTYKLTDEEASRRAEDEWRNRGYDVRVRKNNGTWEVEVR, TYTYKLTDEEASRRAEDEWRNRGYDVRVRLNNGTWEVEVR is higher in “folding stability dG” value: 1.34 kcal/mol for the first, 1.6 kcal/mol for the second.

Going from TYTYKLTDEEASRRAEDEWRNRGYDVRVRMNNGTWEVEVR to TYTYKLTDEEASRRAEDEWRNRGYDVRVRGNNGTWEVEVR, the “folding stability dG” value falls from 1.4 kcal/mol to 0.639 kcal/mol.

Compared with TYTYKLTDEEASRRAEDEWRNRGYDVRVRQNNGTWEVEVR, TYTYKLTDEEASRRAEDEWRNRGYDVRVRANNGTWEVEVR is lower in “folding stability dG” value: 1.51 kcal/mol for the first, 1.03 kcal/mol for the second.

Going from TYTYKLTDEEASRRAEDEWRNRGYDVRVRWNNGTWEVEVR to TYTYKLTDEEASRRAEDEWRNRGYDVRVRHNNGTWEVEVR, the “folding stability dG” value falls from 1.8 kcal/mol to 1.61 kcal/mol.

Compared with TYTYKLTDEEASRRAEDEWRNRGYDVRVRTNNGTWEVEVR, TYTYKLTDEEASRRAEDEWRNRGYDVRVRINNGTWEVEVR is higher in “folding stability dG” value: 0.81 kcal/mol for the first, 1.35 kcal/mol for the second.

Going from TYTYKLTDEEASRRAEDEWRNRGYDVRVRPNNGTWEVEVR to TYTYKLTDEEASRRAEDEWRNRGYDVRVRYNNGTWEVEVR, the “folding stability dG” value rises from 0.863 kcal/mol to 2.33 kcal/mol.

Going from TYTYKLTDEEASRRAEDEWRNRGYDVRVRNNLGTWEVEVR to TYTYKLTDEEASRRAEDEWRNRGYDVRVRNNRGTWEVEVR, the “folding stability dG” value rises from 0.77 kcal/mol to 0.859 kcal/mol.

Compared with TYTYKLTDEEASRRAEDEWRNRGYDVRVRNNMGTWEVEVR, TYTYKLTDEEASRRAEDEWRNRGYDVRVRNNDGTWEVEVR is higher in “folding stability dG” value: 1.08 kcal/mol for the first, 1.16 kcal/mol for the second.

Compared with TYTYKLTDEEASRRAEDEWRNRGYDVRVRNNHGTWEVEVR, TYTYKLTDEEASRRAEDEWRNRGYDVRVRNNSGTWEVEVR is lower in “folding stability dG” value: 1.07 kcal/mol for the first, 0.857 kcal/mol for the second.

First: TYTYKLTDEEASRRAEDEWRNRGYDVRVRNNIGTWEVEVR
Second: TYTYKLTDEEASRRAEDEWRNRGYDVRVRNNAGTWEVEVR
The “folding stability dG” value of the first is lower: -0.191 kcal/mol for the first, 1.12 kcal/mol for the second.

Going from TYTYKLTDEEASRRAEDEWRNRGYDVRVRNNFGTWEVEVR to TYTYKLTDEEASRRAEDEWRNRGYDVRVRNNQGTWEVEVR, the “folding stability dG” value rises from 0.778 kcal/mol to 1.05 kcal/mol.

Compared with TYTYKLTDEEASRRAEDEWRNRGYDVRVRNNKGTWEVEVR, TYTYKLTDEEASRRAEDEWRNRGYDVRVRNNEGTWEVEVR is higher in “folding stability dG” value: 0.989 kcal/mol for the first, 1.15 kcal/mol for the second.

With TYTYKLTDEEASRRAEDEWRNRGYDVRVRNNGGTWEVEVR the “folding stability dG” value was 1.39 kcal/mol.

Reference: the MegaScale stability set (Tsuboyama et al. 2023)
